This series is described as follows: soluble on expression in E. coli; label from the status in PepcDB or PDB records.
With “MPDKKREVSLSHRLQEVASFVPKGARLLDVGSDHAYLPIYLLEQGLIDFAVAGEIIKGPYESAVANVSESELSGQIAVRLADGLAALNDNDDIDLITICGMGGRLIADILAAGSDKLNSVKQLILQPNNCEDDLRSWLVANDFMIKAEKMVKDRHKYYEILVVEKGKITLSDKDLRFGPFLRQERSSIFKERWRKELAKLELALTKVPAKKKADNMFLSTKIEQIKEVLYES”, the “soluble on expression in E. coli” value is “not soluble”.

Consider “HPHVENFTIIGSGFQAETQLEGMITVSHPQSIRVYSRNYDHAKDFASRMSKQFGVDIRPVDNAEAALSDADTVSSITNSTSPVILRKYLGDEYHVNLAGSNYMNRREAEYEVLHDADLVVTEHYDQSMVESAEISEYVKFGGKPVELREIAGRYGEFSGLRRTVFKSMGIGLEDIATAYRVLRNLGIA”, for which the “soluble on expression in E. coli” value is “not soluble”.

Take “MGSDKIHHHHHHVARLNAKQMEVFVAVMTHGSITAAGQRLNVSQPAVSRMIERFEQEAGFVAFERRRGKLVPTPEAEIFFAEVSQVYRGLDYLNEVAREIGTTRRGYLRVGVFPAFAEGWITERITRYVAGREELLTSLEPMSTDSVIEAVSRQTIDLGIALRASDREGLRSEEISSSEIVCILPKGHRLTGRPVLQPTDLSGEDFISMAAKVKARTSIDAVFDSSGVERRIRAETPWASTVCHMVAHGLGVGLVIRESAFEFAHLGYHIAAFKPRIDYRAYLITSTARPLSTAAKGFRDMLLLEFNQAKKAPRASKRWPT”: the “soluble on expression in E. coli” value was “not soluble”.

“SNTPRLSLRTIEPTDYPELAELMDLVFPDVGGSWPRLTIMDLIHQFPDGQICIEDNGKIVGAALTIKVDYNRFSLPHLYTDIITENNVIQNQVTGDAMYGLDVFVHPDYRGLRLGRRLYDARKELCRSKNFKAILAGGRIPNYHQYADELSVAEYIDKVKRRELHDPILSFQLANDFDVKRIMRGYLP”: the “soluble on expression in E. coli” value is “not soluble”.

Turning to “MGSDKIHHHHHHMMDWLYRYPPLYPGILLKRYKRFFADVQLTSGEIVTAHCPNTGPMTGVSTPQSAVQLSKSDNLNRKLAYTLELIQVHDNEPTWVGINTFLPNRVVKLALAKYLFPELGEYSQIKGEVVYGLDKKSRVDFFLTGSDEERPIYLEVKNTTLSEGRLALFPDTETTRGQKHLRELMALLPLTRAVMLYFINRGDCTEFSPGDRTDPVYGKLLRDAIALGLEVLPCRFDISPEGIRYLGLAKLKI”, the “soluble on expression in E. coli” value is “not soluble”.

Consider “MVEIYLFVNPLGGVCLEIEKEIIQLSVNDKKKIQLRFIPLLNMKTINEFLSRQHIPINDIKRRNRIFEDLYSAALDYKAAQLQGRKKGRQLLIGLQKAVAEDGLAYSPELSEELLLAAGGDIDMYRKDRQSDFVKESFQTDQKVAREMGIKQHPTAVVYNYTCENDFGILVENFENMDEIKQLCRVHPHNEPLLNQGDATFEFKRRSNYHFPNGHLHLL”, for which the “soluble on expression in E. coli” value is “not soluble”.

For the sequence “MPLSDADYNDPDNEEVAFLSRGLLEACIEFIRETPAGDALRIVAYEFTFKRILLELKAALERGVDVRIVYHATTANEKAIADAKLPENSKGVQILFKRTRPQTPHNKFIVRLKKGKTPVSVWTGSTNFTPSGFLGQTNVGHKVTDGDIAKIYLQLWEGLKADPDDFDATQAAMALTPLEHHHHHH”, the “soluble on expression in E. coli” value was “soluble”.

In the case of “MGSDKIHHHHHHMKQEVKGVQGQEYEIGLTVGDNRSDIFTFVISPESQIRKWEYVYIKAGETNLLGRIEDLLSKSDLLNDRMDYESVKKYTTSNIKDNVDICVVKIIGAVKDGIISRSRYLIRPGQPVFRATKEMLESIFKFDDQRSLEIGYLADQPDVKIFANINGLRRHLSIIAQTGAGKSHTAGVLMEELLKKGASIIVLDPHADYVLMKNSDKAIYRDNIKVFRTPMSTGRYTAKLGKVDEFTIKFQDLNDEEVREIMGIHENFVNQSKIVKDVMEKLTGRKDVDEFIQKSEQIDTEKRIAARIKYLKKIKAIFGDKTTDVSEYLAPSRMSVIDLSGLDQSLANYFAYKVISQAYDAKVTGSFEYPVFLFIEEAHNFAPPMKVKGSGVSQMLYDTIKKIAAEGRKFGIFLVIITQRPGKIDQDVLSQCNSQIILRITNPSDQKAILESSENISESLMSDLPSLDVGEAIIVGEIVKMPVIAKIRQRETEEGGLDVDIVEMLQKARMEAEKRNDPRAIVENVKKLME”, the “soluble on expression in E. coli” value is recorded as “not soluble”.

Take “MEPAAGFLSPRPFQRAAAAPAPPAGPGPPPSALRGPELEMLAGLPTSDPGRLITDPRSGRTYLKGRLLGKGGFARCYEATDTETGSAYAVKVIPQSRVAKPHQREKILNEIELHRDLQHRHIVRFSHHFEDADNIYIFLELCSRKSLAHIWKARHTLLEPEVRYYLRQILSGLKYLHQRGILHRDLKLGNFFITENMELKVGDFGLAARLEPPEQRKKTICGTPNYVAPEVLLRQGHGPEADVWSLGCVMYTLLCGSPPFETADLKETYRCIKQVHYTLPASLSLPARQLLAAILRASPRDRPSIDQILRHDFFTKGYTPDRLPISSCVTVPDLTPPNPARSLFAKVTKSLFGRKKKSKNHAQERDEVSGLVSGLMRTSVGHQDARPEAPAASGPAPVSLVETAPEDSSPRGTLASSGDGFEEGLTVATVVESALCALRNCIAFMPPAEQNPAPLAQPEPLVWVSKWVDYSNKFGFGYQLSSRRVAVLFNNGTHMALSANRKTVHYNPTSTKHFSFSVGAVPRALQPQLGILRYFASYMEQHLMKGGDLPSVEEVEVPAPPLLLQWVKTDQALLMLFSDGTVQVNFYGDHTKLILSGWEPLLVTFVARNRSACTYLASHLRQLGCSPDLRQRLRYALRLLRDRSPA”: the “soluble on expression in E. coli” value is “soluble”.

Consider “MGSDKIHHHHHHMAIKILSVDDEQDLEALLTQYFRRKIRKGEYEFSFAHNGLEALRMMLDHPDFDIILSDINMPEMDGLTLLTKINEMRNPALKCIIVSAYGDMENIRTAMNHGAFDFATKPIDMEDLERTIEKAVEQISFIKEAQKEHHQLEEIQYDLNVAREIQQSILPKQFPPFPQYKQFDLYATMSAAKAVGGDFYDFFLVDDNHLGFTIADVSDKGIPAAIFMAISRTVIRATALRQLSPAVCMKESNDLLCRESVNGMFVTTFYAILNIHTGDVVYCNGGHNRPVWIRKNDKVSLLPMTGGMALGVVPGLAYKEQSLKLEAGDSLFLYTDGISEAMNLRNEQYGDIRLVEACSSVKNQSPKSMIEGISESVQSFVNGATQSDDITMLALTYKG”, for which the “soluble on expression in E. coli” value was “not soluble”.

As to “GSHMNNEDFSQWSVDDVITWCISTLEVEETDPLCQRLRENDIVGDLLPELCLQDCQDLCDGDLNKAIKFKILINKMRDSKLEWKD”, the “soluble on expression in E. coli” value is listed as “soluble”.

Regarding “MIKGIGLDMIDLERVKQVVEKNPRFIERVLTEKEIKQFEKYEGNRKIEFLAGRFAAKEAYAKANGTGFGKHLSFTDVEILQVEDGRPHVTLPVKSGENVFVSITHTARSAAAQVIIEI”, the “soluble on expression in E. coli” value is “not soluble”.

Take “MAHHHHHHMPYQHIKVPEGGDKITVNKDFSLNVSDQPIIPYIEGDGTGFDITPVMIKVVDAAVEKAYGGKKKIHWMEIYAGEKATKVYGPDVWLPEETLQVLKEYVVSIKGPLTTPVGGGIRSLNVALRQELDLYVCLRPIQYFKGVPSPVREPEKTNMVIFRENSEDIYAGIEWAAESEQAKKVIKFLQEEMGVKKIRFPQTSGIGIKPVSKEGTERLVRKAIQYAIDNDRKSVTLVHKGNIMKFTEGAFRDAGYALAQKEFGAELIDGGPWMKFKNPKTGNEIVVKDSIADAFLQQILLRPAEYDVIATLNLNGDYISDALAAQVGGIGIAPGANLSDSVAMFEATHGTAPKYAGKDYVNPGSEILSAEMMLRHLGWTEAADVIISAMEKSIKQKRVTYDFARLMEGATQVSCSGFGQVLIENME”: the “soluble on expression in E. coli” value is on record as “soluble”.

For MVHFIFIALRSMRFMRRLVRNLQYLLLPITSSLLFI, the “soluble on expression in E. coli” value was “soluble”.

Consider “GSRTGSESSRPNTALLDPSSPEFSAVVSVGDWLQAIKMDRYKDNFTAAGYTTLEAVVHMSQDDLARIGITAITHQNKILSSVQAMRTQMQQMHG”, for which the “soluble on expression in E. coli” value was “soluble”.

Consider “AGQGESGNPPATDKERFIASLMARMSNAEKIGQLRLVSVGADHPKEALMADIRAGKVGAIFNTVTRPDIRAMQDQVRHSRLKIPLFHAYDVAHGHRTIFPISLGLAASWDPEVVARSARISALEASADGLDMSFSPMVDITRDARWGRVSEGFGEDTYLTSLLSGVMVRAYQGSNLAAPDSIMAAVKHFALYGAAEGGRDYNTVDMSLPRMFQDYLPPYKAAVDAGAGAVMVSLNTINGVPATANRWLLTDLLRQQWGFKGLTISDHGAVKELIKHGLAGNERDATRLAIQAGVDMNMNDDLYSTWLPKLLAAGEIDQADIDRACRDVLAAKYDLGLFADPYRRLGKPDDPPFDTNAESRLHRQAAREVAREGLVLLKNRDGLLPLKKQGRIAVIGPLAKSQRDVIGSWSAAGVPRQAVTVYQGLANAVGERATLLYAKGANVSGDQAILDYLNSYNPEVEVDPRSAEAMLEEALRTARDADLVVAVVGESQGMAHEASSRTDLRIPASQRRLLKALKATGKPLVLVLMNGRPLSLGWEQENADAILETWFSGTEGGNAIADVLFGEHNPSGKLTMSFPRSVGQVPVYYNHLNTGRPMDHDNPGKYTSRYFDEANGPLYPFGYGLSYTEFSLSPLRLSSERLARGATLEARVTLSNSGKRAGATVVQLYLQDPVASLSRPVKELRGFRKVMLEPGESREIVFRLGEADLKFYDSQLRHTAEPGEFKVFVGLDSAQTESRSF”, for which the “soluble on expression in E. coli” value is listed as “not soluble”.

In the case of “MGSDKIHHHHHHMIGLRLDGYDPDLHHDAAVAFCIRARDDELFSPRHQHRKGQLILALHGAITCEVENAMWMVPPQYAVWLPGSLPHSNHVTAGAELCFLFIEPAAVVMPERCCTLKISPLCRELILSLARRTDPERAQMPTQRLIQVLFDELPQQPQEQLQLPVSGHPKIRQMVETMAQEPARWNTLGQWASVFAMSERNLARLVVKETGLSFRRWRHQLQLILALQALIAGRNVQQTAQMLGYDSTTAFITMFKKGLGQTPGQYLTGELLLPHN”, the “soluble on expression in E. coli” value is “not soluble”.

Turning to “MRGSHHHHHHGSVIFDKRIKDEEDVEKELGLPVLGSIQKFNMTNTRRSTSSLIVHEQPKSPISEKFRGIRSNIMFANPDSAVQSIVITSEAPGAGMSTIAANLAVAYAQAGYKTLIVDGDMRKPTQHYIFNLPNNEGLSSLLLNWSTYQDSIISTEIEDLDVLTSGPIPPNPSELITSRAFANLYDTLLMNYNFVIIDTPPVNTVTDAQLFSKFTGNVVYVVNSENNNKDEVKKGKELIEATGAKLLGVVLNRMPKDKSASYYAYYGTDES”, the “soluble on expression in E. coli” value was “soluble”.

For “SVTDNNGAVKFPQLCKFCDVRFSTCDNQKSCMSNCSITSICEKPQEVCVAVWRKNDENITLETVCHDPKLPYHDFILEDAASPKCIMKEKKKPGETFFMCSCSSDECNDNIIFSEEYNTSNPD”, the “soluble on expression in E. coli” value is recorded as “soluble”.

As to “MAHHHHHHMARLKVLNVAEKPSVASSIAEILSKGRPNKIKSCSKYNPVFTFDYKIKNDIWYMYVTSVTGHLTDQKFDDRYKNWHNTDPQELFDAEITVYVEKDKKNIENNLKKYSKECNMLILWLDCDREGEHICFEVINACRITNRKLIIHRAQFSAVTEKDIIHAINNLKEPNKNLAYSVDVRREIDLRMGSIFTRFMTIRYIELVKHETSIISYGPCQFPTLGFVVNRYLDIKNFKNEYYWSIKMKYVYNNDEINPMDDENNYDDHDDEQMDSDSDESDSYYTNNDDSNNYSDETDDYYGD”, the “soluble on expression in E. coli” value is given as “not soluble”.

For “MSLANQPIDLLMQPKWRVIDQSSLGPLFDAKQSFAMDDTLCMSVGKGVSPATARSWVHHDTIVLGIQDTRLPFLQDGISLLESEGYRVIVRNSGGLAVVLDDGVLNISLIFEDEKKGIDIDKGYEAMVELMRRMLRPYNAKIEAYEIEGSYCPGSYDLSINGKKFAGISQRRVRGGVAVQIYLCADKSGSERADLIRRFYQAALKDKQNDKKGVYPEIRPETMASLSELLQKDISVQDLMFALLTELKALSTHLYSAGLSIDEEMEFEKNLVRMAERNAKVFGEGHHHHHH”, the “soluble on expression in E. coli” value is “soluble”.

The values are drawn from the DeepSol protein solubility set.
